Data published in paper doi:10.1101/2025.08.28.672897.

Target: μ opioid receptor (MOR) (human) (UniProt P35372)
UniProt P35372, sequence (P35372 whole entry): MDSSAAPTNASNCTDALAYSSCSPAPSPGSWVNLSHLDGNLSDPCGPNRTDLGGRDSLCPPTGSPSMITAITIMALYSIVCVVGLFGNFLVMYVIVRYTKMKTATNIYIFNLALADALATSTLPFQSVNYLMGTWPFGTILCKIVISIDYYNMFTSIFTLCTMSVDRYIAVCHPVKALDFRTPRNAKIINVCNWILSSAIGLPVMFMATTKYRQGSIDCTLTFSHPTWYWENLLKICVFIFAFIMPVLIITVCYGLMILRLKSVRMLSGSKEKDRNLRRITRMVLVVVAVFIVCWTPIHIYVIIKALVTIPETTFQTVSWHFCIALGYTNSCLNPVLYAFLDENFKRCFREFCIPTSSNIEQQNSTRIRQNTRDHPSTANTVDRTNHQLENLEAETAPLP

TRUPATH BRET2, Ggust activation, 0 mM sodium, pEC50: 10.2 pEC50 | TRUPATH BRET2, Ggust activation, 140 mM sodium, pEC50: 9.57 pEC50 | TRUPATH BRET2, Gi1 activation, 0 mM sodium, pEC50: 9.01 pEC50 | TRUPATH BRET2, Gi1 activation, 140 mM sodium, pEC50: 7.55 pEC50 | TRUPATH BRET2, Gi2 activation, 0 mM sodium, pEC50: 9.97 pEC50 | TRUPATH BRET2, Gi2 activation, 140 mM sodium, pEC50: 9.17 pEC50 | TRUPATH BRET2, Gi3 activation, 0 mM sodium, pEC50: 9.43 pEC50 | TRUPATH BRET2, Gi3 activation, 140 mM sodium, pEC50: 8.12 pEC50 | TRUPATH BRET2, GoA activation, 0 mM sodium, pEC50: 9.82 pEC50 | TRUPATH BRET2, GoA activation, 140 mM sodium, pEC50: 9.08 pEC50 | TRUPATH BRET2, GoB activation, 0 mM sodium, pEC50: 9.77 pEC50 | TRUPATH BRET2, GoB activation, 140 mM sodium, pEC50: 8.52 pEC50 | TRUPATH BRET2, Gz activation, 0 mM sodium, pEC50: 9.66 pEC50 | TRUPATH BRET2, Gz activation, 140 mM sodium, pEC50: 8.82 pEC50
Substance: DAMGO (peptide)
